Test results as given in paper PMC9995077 (Science Advances, 2023).

Key:
[1] = biological target: Ino80-K929R-FLAG (S. cerevisiae, UniProt P53115 1-1489, K929R); experiment: co-IP
[2] = biological target: Ino80-FLAG (endogenously expressed FLAG-tagged Ino80) (S. cerevisiae (endogenous in yeast …, UniProt P53115 1-1489)); experiment: co-IP
Chain of Ino80-FLAG (endogenously expressed FLAG-tagged Ino80) (S. cerevisiae (P53115 whole entry): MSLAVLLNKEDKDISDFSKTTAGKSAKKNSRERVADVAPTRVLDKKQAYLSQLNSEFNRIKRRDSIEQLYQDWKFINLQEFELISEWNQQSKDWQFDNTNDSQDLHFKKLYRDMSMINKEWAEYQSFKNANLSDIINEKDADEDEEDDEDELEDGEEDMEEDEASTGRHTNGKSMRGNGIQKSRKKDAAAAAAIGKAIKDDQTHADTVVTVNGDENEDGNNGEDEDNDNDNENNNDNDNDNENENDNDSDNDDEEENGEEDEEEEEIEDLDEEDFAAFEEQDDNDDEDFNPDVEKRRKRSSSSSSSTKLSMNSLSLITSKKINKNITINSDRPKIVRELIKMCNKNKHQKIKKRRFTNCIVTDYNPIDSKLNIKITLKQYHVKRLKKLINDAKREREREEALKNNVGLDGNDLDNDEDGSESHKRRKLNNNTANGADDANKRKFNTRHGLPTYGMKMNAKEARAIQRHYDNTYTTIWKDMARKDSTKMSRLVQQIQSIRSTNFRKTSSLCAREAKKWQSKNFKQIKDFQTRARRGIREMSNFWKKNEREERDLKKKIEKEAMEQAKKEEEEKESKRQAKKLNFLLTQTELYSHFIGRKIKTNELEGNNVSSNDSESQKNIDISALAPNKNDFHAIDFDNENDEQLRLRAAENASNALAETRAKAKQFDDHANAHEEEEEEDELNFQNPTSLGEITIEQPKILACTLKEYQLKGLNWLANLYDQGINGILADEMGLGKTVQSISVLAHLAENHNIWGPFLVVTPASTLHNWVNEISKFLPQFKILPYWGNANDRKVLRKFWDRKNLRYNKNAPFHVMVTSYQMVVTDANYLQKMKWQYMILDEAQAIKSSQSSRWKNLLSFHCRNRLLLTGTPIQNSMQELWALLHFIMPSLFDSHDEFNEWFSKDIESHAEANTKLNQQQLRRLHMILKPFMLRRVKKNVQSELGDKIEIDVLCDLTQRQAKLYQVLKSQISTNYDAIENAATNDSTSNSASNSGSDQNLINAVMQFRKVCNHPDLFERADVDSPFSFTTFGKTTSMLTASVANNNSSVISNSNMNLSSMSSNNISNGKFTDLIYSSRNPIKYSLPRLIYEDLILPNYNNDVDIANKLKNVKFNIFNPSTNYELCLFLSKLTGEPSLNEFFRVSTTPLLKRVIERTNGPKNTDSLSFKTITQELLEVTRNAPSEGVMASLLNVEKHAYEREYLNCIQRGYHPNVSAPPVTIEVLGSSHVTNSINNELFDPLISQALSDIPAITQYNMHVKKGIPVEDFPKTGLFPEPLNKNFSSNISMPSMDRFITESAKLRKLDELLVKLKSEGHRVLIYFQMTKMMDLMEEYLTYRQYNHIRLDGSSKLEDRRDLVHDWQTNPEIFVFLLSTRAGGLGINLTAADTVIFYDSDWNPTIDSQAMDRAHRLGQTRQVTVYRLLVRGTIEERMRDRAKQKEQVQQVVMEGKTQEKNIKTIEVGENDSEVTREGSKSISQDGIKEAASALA

Chain of Ino80-K929R-FLAG (P53115 whole entry K929R): as the sequence (P53115 whole entry) above, with K929R counted along it

B1: Atg11-CBP (tandem affinity-purified Atg11) (natural protein)
chain: MADADEYSTAPTQQEITPLQTTATIINAISGECITTNVDFFVSLDKFKQFIARKWKIPPDQLLILLPYGNKLKPSMFKELLINRSFTLNDFYVYDRRLFSLVSKPTPTNLLTSKDSNPMNSPNSNDLTETLEYLIKNSHISQYQGSDTIMIKPMPSPLEDADVDLSRLNYHSVTSLLTTNLGWLSALEIDVHYFKSLIPDIIAHIKRIFDGLTVCSQYLKLYCFDVESLYNSNVQFLNQLVDNGMTSKWEKCFNDTLSKLTALEGDSLQKFINIESLLENEKSVKILNHSINGKLNKIKREIDENASFRDIITVNIDRLRQMFTPNESKFELEDQMAESFEVLVSEMRTRSRNVLDKEEEEFNSQEFLKSMNVMLEKDKKESVKTLFTISQALYSQIGELIDLKKSLQKHAVAILGNIAFTQMEILGIKRLLLNECNKDLELYKKYEVEFAQVEDLPLIYGLYLIEKYRRLSWFQQILSFISNFNQDLELFKQNELRTRNKWVKNFGSIATVFCEDLLSSSDFKRLNEYHSHTSPPNEDEEDENENSIANYRQDLVKVSQAIDNYMTQIKETDVSEPIIDLLSKTLFETKRFHIIYSNFKNNNNNSSNGNSISPEGSIALKSDDVVKGYKTRIKKLESLLHEFQYSDIGHWPQGVLNTHLKPFRGSATSINKKKFLGASVLLEPANISEVNIDSVSQANNHQIQELESNVDDLLHQLQLLKEENNRKSMQISEMGKKISDLEVEKTAYRETLTNLNQELARLTNEEQSHRTEIFTLNASFKKQLNDIISQDNEKIEKLTGDYDDVSKSRERLQMDLDESNKKHEQEVNLLKADIERLGKQIVTSEKSYAETNSSSMEKGEKFETIPLAEDPGRENQISAYTQTLQDRIFDIISTNIFILENIGLLLTFDNNNNIQIRRVKGLKKGTAQSNILDESTQMLDAHDNSLIKSPVFQKLKDEYELIKSVANGSEKDTQQSIFLGNITQLYDNKLYEVAVIRRFKDIETLAKKLTKENKIKRTLLERFQREKVTLRNFQIGDLALFLPTRENVNSVGSMSSSTSSLSSSFSSVDLSTPPPLDAMSIQSSPSVIHSNVINQASISGRDKNKLMRPWAAFTAFEESTRYFLKDEKGLTKGKEWFVGRIVTLEHFVADSPSNNPFRLPKGSVWFQVTAVVVSYQGV
[1]
  binding result: binds
[2]
  binding result: binds
